According to publication PMC4110903 (Methods in enzymology, 2014):

Molecular target: T1, MBP-tagged full length human HSPC300 (human, UniProt Q8WUW1 1-75)
T1 sequence (looked up): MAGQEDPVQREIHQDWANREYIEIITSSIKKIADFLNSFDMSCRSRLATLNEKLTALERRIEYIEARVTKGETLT
Assay: reconstitution and co-elution on anion exchange chromatography

binding result: binds
B1: MBP-tagged WAVE217: human WAVE1 (1-217)-(GGS)6-(485-559) (domain or fragment)
chain: MPLVKRNIDPRHLCHTALPRGIKNELECVTNISLANIIRQLSSLSKYAEDIFGELFNEAHSFSFRVNSLQERVDRLSVSVTQLDPKEEELSLQDITMRKAFRSSTIQDQQLFDRKTLPIPLQETYDVCEQPPPLNILTPYRDDGKEGLKFYTNPSYFFDLWKEKMLQDTEDKRKEKRKQKQKNLDRPHEPEKVPRAPHDRRREWQKLAQGPELAEDDGGSGGSGGSGGSGGSGGSKRHPSTLPVISDARSVLLEAIRKGIQLRKVEEQREQEAKHERIENDVATILSRRIAVEYSDSEDDSEFDEVDWLE
